The text below walks through data of PMC5748837, “Biochemical characterization of INTS3 and C9ORF80, two subunits of hNABP1/2 heterotrimeric complex in nucleic acid binding”.

Numbering of substitutions follows the chain as printed.

Common to all, as to assay: EMSA; EMSA: 20 mM HEPES pH 7.3, 100 mM KCl, 1 mM MgCl2, 1 mg/ml BSA, 1 mM DTT, 6% glycerol, 0.5 nM 32P substrate, 30 min on ice; 5% native PAGE, 1x TBE, 4°C
Background: Mobility shift assays separate free from complexed probe on a gel.

One data set deals with INTS3FL (human, UniProt Q68E01-2 1-1042). Particulars: protein: recombinant, tags: GST cleaved (PreScission).
Chain of INTS3FL (Q68E01 other isoform, or with tags, fused parts or gaps): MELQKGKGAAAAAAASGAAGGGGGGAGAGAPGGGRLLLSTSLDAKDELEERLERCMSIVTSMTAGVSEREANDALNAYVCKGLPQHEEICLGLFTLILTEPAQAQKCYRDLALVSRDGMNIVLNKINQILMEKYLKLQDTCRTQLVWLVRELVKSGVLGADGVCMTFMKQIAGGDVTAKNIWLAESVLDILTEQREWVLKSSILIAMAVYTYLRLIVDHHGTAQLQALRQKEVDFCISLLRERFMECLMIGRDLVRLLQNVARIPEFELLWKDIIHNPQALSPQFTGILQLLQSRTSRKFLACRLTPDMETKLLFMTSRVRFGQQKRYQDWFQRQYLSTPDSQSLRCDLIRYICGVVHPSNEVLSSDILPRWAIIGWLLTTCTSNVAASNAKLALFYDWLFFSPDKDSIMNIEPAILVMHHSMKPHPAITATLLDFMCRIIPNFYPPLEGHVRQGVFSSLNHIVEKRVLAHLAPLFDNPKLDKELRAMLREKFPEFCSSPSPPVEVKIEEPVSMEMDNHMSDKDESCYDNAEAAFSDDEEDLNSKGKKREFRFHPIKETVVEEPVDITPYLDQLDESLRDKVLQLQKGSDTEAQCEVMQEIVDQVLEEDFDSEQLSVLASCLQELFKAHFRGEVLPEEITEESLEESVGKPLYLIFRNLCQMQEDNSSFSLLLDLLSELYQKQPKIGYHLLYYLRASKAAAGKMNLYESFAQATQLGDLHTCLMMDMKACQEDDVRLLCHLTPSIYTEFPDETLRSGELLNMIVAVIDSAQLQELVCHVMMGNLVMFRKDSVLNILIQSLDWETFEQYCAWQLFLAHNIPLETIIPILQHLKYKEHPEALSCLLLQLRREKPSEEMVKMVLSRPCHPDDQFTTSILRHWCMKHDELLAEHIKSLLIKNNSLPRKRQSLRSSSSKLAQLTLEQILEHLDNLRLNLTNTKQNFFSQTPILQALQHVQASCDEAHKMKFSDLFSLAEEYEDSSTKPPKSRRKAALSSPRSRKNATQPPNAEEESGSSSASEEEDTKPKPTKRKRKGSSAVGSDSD
In data set [1] the target is INTS3FL in co-expressed complex;hNABP2 (hSSB1);C9ORF80 (human;human;human, UniProt Q68E01-2;Q9BQ15;Q9NRY2 1-1042;1-211;1-104, ||). The following applies: protein: recombinant;recombinant;recombinant; tags: GST (pGEX-6P-1); copies: 1;1;1; label: 5'-32P.
Chain of INTS3FL in co-expressed complex;hNABP2 (hSSB1);C9ORF80 (Q68E01 other isoform, or with tags, fused parts or gaps ||, chain 1 of 2): as the sequence (Q68E01 other isoform, or with tags, fused parts or gaps) above
Chain of INTS3FL in co-expressed complex;hNABP2 (hSSB1);C9ORF80 (Q9BQ15 whole entry, chain 2 of 2): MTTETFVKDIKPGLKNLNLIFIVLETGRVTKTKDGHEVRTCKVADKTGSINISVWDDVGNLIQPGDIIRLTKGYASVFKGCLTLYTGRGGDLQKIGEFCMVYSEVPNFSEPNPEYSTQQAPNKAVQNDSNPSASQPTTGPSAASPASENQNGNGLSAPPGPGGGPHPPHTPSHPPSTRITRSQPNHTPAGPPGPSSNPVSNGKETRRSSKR
A further data set deals with hNABP2 (hSSB1) (human, UniProt Q9BQ15 1-211). The following applies: protein: recombinant; tags: His; label: 5'-32P.
Chain of hNABP2 (hSSB1) (Q9BQ15 whole entry): as the sequence (Q9BQ15 whole entry, chain 2 of 2) above
Another data set has as its target INTS3C (human, UniProt Q68E01-2 514-1042). Particulars: protein: recombinant, tags: His (pET28a), label: 5'-32P.
The target in a further data set is T1, C9ORF80 (human, UniProt Q9NRY2 1-104).
T1 sequence: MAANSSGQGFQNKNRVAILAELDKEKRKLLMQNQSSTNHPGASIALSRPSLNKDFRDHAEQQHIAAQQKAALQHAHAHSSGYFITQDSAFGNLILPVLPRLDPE
The following applies: protein: recombinant, tags: His (pET28a).

Another data set concerns the target hNABP1 (hSSB2) (human, UniProt Q96AH0 1-204). Particulars: protein: recombinant; tags: His; label: 5'-32P.
Data set [2] addresses INTS3FL in co-expressed complex;hNABP1 (hSSB2);C9ORF80 (human;human;human, UniProt Q68E01-2;Q96AH0;Q9NRY2 1-1042;1-204;1-104, ||). Particulars: protein: recombinant;recombinant;recombinant; tags: GST (pGEX-6P-1); copies: 1;1;1; label: 5'-32P.
[3] abbreviates: label: 5'-32P on one strand, blunt.

Chain of INTS3C (Q68E01 515-1043): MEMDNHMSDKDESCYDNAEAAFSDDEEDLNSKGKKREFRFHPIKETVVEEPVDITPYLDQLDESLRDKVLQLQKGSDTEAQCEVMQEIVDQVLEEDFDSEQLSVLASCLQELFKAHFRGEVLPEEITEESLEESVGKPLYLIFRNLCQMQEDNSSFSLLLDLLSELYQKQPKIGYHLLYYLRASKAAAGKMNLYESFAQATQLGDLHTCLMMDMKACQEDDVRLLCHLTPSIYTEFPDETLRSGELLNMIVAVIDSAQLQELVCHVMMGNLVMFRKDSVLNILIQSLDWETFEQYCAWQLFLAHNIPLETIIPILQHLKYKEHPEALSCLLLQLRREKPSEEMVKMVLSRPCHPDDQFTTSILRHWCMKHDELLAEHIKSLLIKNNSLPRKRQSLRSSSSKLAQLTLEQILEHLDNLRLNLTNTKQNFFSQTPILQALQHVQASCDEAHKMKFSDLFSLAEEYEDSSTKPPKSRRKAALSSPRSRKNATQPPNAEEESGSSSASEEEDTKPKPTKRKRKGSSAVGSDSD
Chain of INTS3FL in co-expressed complex;hNABP1 (hSSB2);C9ORF80 (Q68E01 other isoform, or with tags, fused parts or gaps ||, chain 1 of 2): as the sequence (Q68E01 other isoform, or with tags, fused parts or gaps) above
Chain of INTS3FL in co-expressed complex;hNABP1 (hSSB2);C9ORF80 (Q96AH0 whole entry, chain 2 of 2): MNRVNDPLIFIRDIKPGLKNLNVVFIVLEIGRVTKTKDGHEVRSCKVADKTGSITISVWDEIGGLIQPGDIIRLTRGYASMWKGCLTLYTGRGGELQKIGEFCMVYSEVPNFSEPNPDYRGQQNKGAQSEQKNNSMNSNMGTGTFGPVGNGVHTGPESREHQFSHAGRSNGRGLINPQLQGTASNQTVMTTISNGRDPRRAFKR
Chain of hNABP1 (hSSB2) (Q96AH0 whole entry): as the sequence (Q96AH0 whole entry, chain 2 of 2) above

B1: DNA 60-mer (random) (ssDNA)
DNA: ACGCAGTTGAGTATTCTACAGAGTTGGCGTGAGCTACCAGCTACCCCGTATGTCAGAGAG
The term Kd denotes the constant that tells how readily two partners part at equilibrium. Turning to B1, the equilibrium dissociation constant (Kd) with INTS3FL (label: 5'-32P) stood at 6.4 ± 0.9 µM.

B2: dT60 (ssDNA)
DNA: TTTTTTTTTTTTTTTTTTTTTTTTTTTTTTTTTTTTTTTTTTTTTTTTTTTTTTTTTTTT
B2: in the data set with INTS3FL (label: 5'-32P), the binding result was “binds”.
With UUUUUUUUUUUUUUUUUUUUUUUUUUUUUU (ssRNA) [rU30], the Kd in data set [1] was found to be 0.5 ± 0.07 µM; with INTS3FL (label: 5'-32P), 5.6 ± 1.2 µM; in the data set with hNABP2 (hSSB1) it was 0.06 ± 0.02 µM; with INTS3C (chain copies: 2) it was 1.2 ± 0.8 µM.

B3: dsRNA 30-mer (dsRNA)
RNA 1: GAGCUACCAGCUACCCCGUAUGUCAGAGAG
RNA 2: CUCUCUGACAUACGGGGUAGCUGGUAGCUC
With B3, the binding result with C9ORF80 (setting [3]) and with INTS3FL (setting [3]) was “no binding” in each case.

B4: dT90 (ssDNA)
DNA: TTTTTTTTTTTTTTTTTTTTTTTTTTTTTTTTTTTTTTTTTTTTTTTTTTTTTTTTTTTTTTTTTTTTTTTTTTTTTTTTTTTTTTTTTT
Consider B4, for which the binding result in the data set with C9ORF80 (label: 5'-32P) and in the data set with INTS3FL (label: 5'-32P) was “binds” in each case.
In the case of GAGCTACCAGCTACCCCGTATGTCAGAGAG (ssDNA) [DNA 30-mer (random)], the Kd with INTS3FL (label: 5'-32P) stood at 13 ± 0.8 µM.
Take TTTTTTTTTTTTTTTTTTTTTTTTTTTTTT (ssDNA) [dT30]: the Kd with C9ORF80 (label: 5'-32P) turned out to be 13.2 ± 1.2 µM; with hNABP1 (hSSB2), 0.15 ± 0.04 µM; with INTS3C, 7.2 ± 1.2 µM; in data set [2], 0.6 ± 0.09 µM.

B5: DNA:RNA hybrid 30-mer (DNA:RNA)
DNA: GAGCTACCAGCTACCCCGTATGTCAGAGAG
RNA: B3 RNA 2
Consider B5, for which the binding result in the data set with C9ORF80 (setting [3]) and in the data set with INTS3FL (setting [3]) was “no binding” throughout.
